Assay results as given in patent US20240076386A1 (Pfizer, published 2024).
Residue numbers refer to the chain shown, from its start. Blank lines part the entries; values can stand above or below the binder they belong to.

How the values were obtained:
[1] = molecular target: T1, human E-selectin, cell-surface expressed (human, UniProt P16581 22-610); experiment: competition ELISA on CHO cells vs sialyl Lewis ligand-PAA-biotin/SA-HRP
T1 construct: also called CHO-human E-selectin cells; human CHO-E
T1 sequence: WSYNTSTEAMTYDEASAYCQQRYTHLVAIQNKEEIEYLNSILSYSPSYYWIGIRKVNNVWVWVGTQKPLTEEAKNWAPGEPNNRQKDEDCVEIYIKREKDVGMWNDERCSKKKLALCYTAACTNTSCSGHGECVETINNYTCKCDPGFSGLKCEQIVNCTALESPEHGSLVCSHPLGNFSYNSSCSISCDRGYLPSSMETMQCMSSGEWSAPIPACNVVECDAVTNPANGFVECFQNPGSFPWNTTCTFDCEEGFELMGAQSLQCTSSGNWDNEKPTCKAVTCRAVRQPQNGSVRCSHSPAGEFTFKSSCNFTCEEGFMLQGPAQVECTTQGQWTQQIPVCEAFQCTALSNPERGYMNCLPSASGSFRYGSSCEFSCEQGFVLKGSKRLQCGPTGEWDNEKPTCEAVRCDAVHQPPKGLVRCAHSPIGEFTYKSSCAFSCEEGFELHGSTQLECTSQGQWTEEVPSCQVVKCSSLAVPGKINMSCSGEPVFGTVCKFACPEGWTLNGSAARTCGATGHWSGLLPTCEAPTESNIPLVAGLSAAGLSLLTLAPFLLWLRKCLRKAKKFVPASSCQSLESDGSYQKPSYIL
Description: (§1) In a static ligand cellular adhesion assay, horse radish peroxidase (HRP) conjugated E-selectin ligand and E-selectin antibodies compete for binding to human or cynomolgus E-selectin expressed on Chinese hamster ovary (CHO) cells. The ability of anti-E-selectin antibodies to neutralize the ligand binding was assessed in a static neutralization assay using a competition enzyme-linked immunosorbent assay (ELISA) to evaluate the neutralization of the sialyl Lewis antigen to Chinese hamster ovary cells (CHO) engineered to express human or cynomolgus monkey E-selectin.
(§2) CHO cells expressing E-selectin were seeded at 12,500 cells per well into a 96 well tissue culture plate and incubated at 37° C., 5% CO₂ for 48 hours to form a confluent monolayer. Plates were subsequently washed twice with 200 μL of calcium magnesium free PBS. Anti-E-selectin antibodies, or an IgG1 isotype control, were added to the assay in the presence of a small synthetic conjugate of biotinylated, sialyl Lewis A polyacrylamide (Carbosynth LLC, OS45446) or sialyl Lewis X polyacrylamide (Glycotech, 01-045) with a streptavidin/horseradish peroxidase (100 μL total) and incubated at 37° C., 5% CO₂ for 2 hours. Plates were then washed twice with 200 μL of calcium magnesium free PBS. Following the incubation, the cells were washed twice with 200 μL of wash buffer containing 2 mM calcium chloride (50 mM TRIS [trisaminomethane], 150 mM sodium chloride; 0.05% polysorbate 20, pH 7.4; 2 mM of calcium chloride). Signal was developed by adding 100 μL of 1-Step Ultra TMB substrate (Thermo Scientific, 34028) and incubating for 30 minutes at room temperature. Reactions were stopped using 2 M of sulfuric acid and absorbance was read at 450 nm (Spectramax M5e). Data was analyzed and graphed using GraphPad Prism software (Version 8.0.2).

[2] = molecular target: T2, cynomolgus monkey E-selectin, cell-surface expressed (cynomolgus monkey, UniProt P16581 22-610 (human entry)); experiment: as above
T2 construct: also called CHO-cynomolgus monkey E-selectin cells; cynomolgus monkey CHO-E
T2 chain: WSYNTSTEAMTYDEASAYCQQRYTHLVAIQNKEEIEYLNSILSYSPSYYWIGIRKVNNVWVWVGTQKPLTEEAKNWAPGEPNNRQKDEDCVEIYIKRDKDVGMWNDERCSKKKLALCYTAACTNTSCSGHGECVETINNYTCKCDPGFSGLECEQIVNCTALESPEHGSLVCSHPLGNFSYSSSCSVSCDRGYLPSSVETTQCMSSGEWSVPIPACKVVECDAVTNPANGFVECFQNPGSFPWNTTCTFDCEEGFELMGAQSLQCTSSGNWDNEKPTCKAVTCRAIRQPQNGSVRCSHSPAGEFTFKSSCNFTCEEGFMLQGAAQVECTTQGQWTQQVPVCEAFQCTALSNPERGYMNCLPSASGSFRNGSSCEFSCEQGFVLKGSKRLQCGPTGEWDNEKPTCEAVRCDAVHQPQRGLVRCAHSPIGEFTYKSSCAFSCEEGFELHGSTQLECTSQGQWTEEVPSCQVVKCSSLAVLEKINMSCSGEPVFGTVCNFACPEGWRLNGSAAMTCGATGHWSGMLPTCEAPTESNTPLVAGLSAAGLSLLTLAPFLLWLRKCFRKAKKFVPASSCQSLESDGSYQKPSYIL
Description: as §1, §2

[3] = molecular target: T1, human E-selectin, cell-surface expressed; experiment: flow cytometry, CHO cells
Description: (§3) Cells were maintained in growth medium at 37° C., 5% CO₂ and 95% air in a humidified incubator. Methotrexate or Zeocin were removed from the medium prior to culture for experiments. CHO-E selectin cells were detached from T-150 flasks using citric saline (135 mM KCl, 15 mM sodium citrate) and immediately re-calcified with the addition of CaCl₂) to the detached cells to a final concentration of 1 mM. Growth media was immediately added to the detached cells, then centrifuged at 300×g for 5 minutes at room temperature to pellet the cells. Cells were plated into 96-well round-bottom plates in cold CHO buffer consisting of phosphate buffered saline (PBS), pH 7.4 containing bovine serum albumin (BSA; Sigma-Aldrich) at final concentration of 1%, calcium chloride at final concentration of 1 mM, and sodium azide at a final concentration of 0.1%, for 5 minutes on wet ice. After incubation, the cells were centrifuged at 300×g for 2 minutes at 4° C. to remove the buffer.
(§4) After incubation, the antibodies were removed and the cells were washed three times by centrifugation at 300×g for 1 minute at 4° C. and resuspended in cold CHO buffer. The washed cells were resuspended and incubated for 30 minutes on wet ice with 100 μL of 1:1000 dilution of APC-conjugated AffiniPure F(ab′)₂ Fragment Goat Anti-human IgG, Fcγ (Jackson Immunoresearch). The cells were washed three or four times prior to resuspension in CHO buffer for flow cytometric analysis. A Becton Dickinson LSRFortessa instrument using 640 nanometer laser line was used to acquire cell fluorescence data. Geometric mean fluorescence of cells was analyzed by FlowJo software package (FlowJo, LLC) and plotted against antibody concentration. The estimated EC₅₀ values were calculated using nonlinear regression analysis in the GraphPad Prism suite.

[4] = molecular target: T2, cynomolgus monkey E-selectin, …; experiment: flow cytometry, CHO cells
Description: as §3, §4

- IC50 [1]: 3.81 nM
- IC50 [2]: 1.74 nM
- EC50 [3]: 1.62 nM
- EC50 [4]: 1.54 nM
B1: humanized anti-E-selectin antibody 0841 (antibody, human IgG1, kappa, V domains shown)
VH: EVQLVESGGGLVQPGGSLRLSCAASGYNIRSSYMHWVRQAPGKGLEWVARIDPANGNTIYAEKFKIRFTISADNAKNSAYLQMNSLRAEDTAVYYCAMDLYSTSEYWGQGTLVTVSS
VL: DIQMTQSPSSLSASVGDRVTITCKTSQNINRYLNWYQQKPGKAPKLLIYNANSLQTGVPSRFSGSGSGTDFTLTISSLQPEDFATYFCLQDNSWPLTFGQGTKVEIKR
notes: effector-null human IgG1, kappa

- IC50 [1]: 5.17 nM
- IC50 [2]: 2 nM
- EC50 [3]: 1.39 nM
- EC50 [4]: 1.73 nM
B2: anti-E-selectin antibody 0164 chimera (antibody, human IgG1, kappa, V domains shown)
VH: EVQLQQSGAEFGKPGTSVKLSCKVSGYNIRSSYMHWVNQRPGKGLEWIGRIDPANGNTIYAEKFKIKAILTADSSSNTAYMQLSQLKSDDTAIYFCAMDLYSTSEYWGQGVMVTVSS
VL: B1 VL with S10F, T22N, P40L, K42E, V58I, G64A, S76N, F83V, Q100S, V104L
notes: rat VH/VL on effector-null human IgG1 and human kappa
